In paper PMC9585516, “In Vitro Demonstration of Human Lipoyl Synthase Catalytic Activity in the Presence of NFU1” (ACS Bio & Med Chem Au, 2022):

B1: human NFU1, amino acids 59-254, holo form (domain or fragment)
chain: GHMFIQTQDTPNPNSLKFIPGKPVLETRTMDFPTPAAAFRSPLARQLFRIEGVKSVFFGPDFITVTKENEELDWNLLKPDIYATIMDFFASGLPLVTEETPSGEAGSEEDDEVVAMIKELLDTRIRPTVQEDGGDVIYKGFEDGIVQLKLQGSCTSCPSSIITLKNGIQNMLQFYIPEVEGVEQVMDDESDEKEANSP
notes: Gly-His N-terminal appendage left after removal of the His6-SUMO tag; NFU1, human, Q9UMS0 (full length 1-254), N-terminally truncated variant, amino acids 59-254; Holo form with a [4Fe-4S] cluster; also called holo-NFU1; NFUI; source: E. coli BL21 (DE3) with pDB1282, purified under anoxic conditions (Ni-IMAC, SUMO tag removed with ULP1, SEC); not shown: His6, N-terminal, cleaved; SUMO, …
B2: human lipoyl synthase (LIAS), amino acids 28-372, holo form (enzyme)
chain: GHLSSLPDKKKELLQNGPDLQDFVSGDLADRSTWDEYKGNLKRQKGERLRLPPWLKTEIPMGKNYNKLKNTLRNLNLHTVCEEARCPNIGECWGGGEYATATATIMLMGDTCTRGCRFCSVKTARNPPPLDASEPYNTAKAIAEWGLDYVVLTSVDRDDMPDGGAEHIAKTVSYLKERNPKILVECLTPDFRGDLKAIEKVALSGLDVYAHNVETVPELQSKVRDPRANFDQSLRVLKHAKKVQPDVISKTSIMLGLGENDEQVYATMKALREADVDCLTLGQYMQPTRRHLKVEEYITPEKFKYWEKVGNELGFHYTASGPLVRSSYKAGEFFLKNLVAKRKTKDL
notes: Gly-His N-terminal appendage left after removal of the His6-SUMO tag; Holo form with two [4Fe-4S] clusters; also called holo-LIAS; source: E. coli BL21 (DE3) with pDB1282, purified under anoxic conditions (Ni-IMAC, SUMO tag removed with ULP1, SEC); not shown: His6, N-terminal, cleaved; SUMO, N-terminal, cleaved

Assays:
[1] = target: B2; experiment: ITC; 2 uL injections of LIAS (150 uM, syringe) into NFU1 (19 uM, cell) at 27 °C, anaerobic; 0.1 M HEPES pH 7.5, 0.5 M KCl, 5% glycerol, 2 mM TCEP; conditions: both partners purified
[2] = target: B1; experiment: SEC; HiPrep 16/60 Sephacryl HR S-200 in an anaerobic glovebox, 0.5 mL/min; 50 mM HEPES pH 7.5, 250 mM KCl, 10% glycerol, 2.5 mM TCEP, 10 mM BME; holo-LIAS alone (100 uM), holo-NFU1 alone (200 uM) and a 1:1 mixture; masses from a calibration curve; peak fractions checked by SDS-PAGE; conditions: both partners purified

Kd [1] | stoichiometry N [2] | Binder
700 ± 200 nM |  | B1
 | 1 | B2
